Source: patent US20210393689A1 (JUNO THERAPEUTICS, published 2021)

B1: GPRC5D-202 VH/VL - long (anti-GPRC5D CAR) (protein)
chain: EVQLVESGGGLVKPGGSLRLSCAASGFTFSDYYMSWIRQAPGKGLEWVSYISSSGSTIYYADSVKGRFTISRDNAKNSLYLQMNSLRAEDTAVYYCARGYGKAYDQWGQGTLVTVSSGSRGGGGSGGGGSGGGGSLEMAQSVLTQPPSASGTPGQRVTISCSGSRSNVGGNYVFWYQQVPGATPKLLIYRSNQRPSGVPDRFAGSKSGSSASLAISGLRSEDEADYYCATWDDSLSGFVFGTGTKVTVLESKYGPPCPPCPAPPVAGPSVFLFPPKPKDTLMISRTPEVTCVVVDVSQEDPEVQFNWYVDGVEVHNAKTKPREEQFQSTYRVVSVLTVLHQDWLNGKEYKCKVSNKGLPSSIEKTISKAKGQPREPQVYTLPPSQEEMTKNQVSLTCLVKGFYPSDIAVEWESNGQPENNYKTTPPVLDSDGSFFLYSRLTVDKSRWQEGNVFSCSVMHEALHNHYTQKSLSLSLGKMFWVLVVVGGVLACYSLLVTVAFIIFWVKRGRKKLLYIFKQPFMRPVQTTQEEDGCSCRFPEEEEGGCELRVKFSRSADAPAYQQGQNQLYNELNLGRREEYDVLDKRRGRDPEMGGKPRRKNPQEGLYNELQKDKMAEAYSEIGMKGERRRGKGHDGLYQGLSTATKDTYDALHMQALPPR
B2: GPRC5D-201 scFv clone (scFv, V domains shown)
VH: QMQLVQSGAEVKKPGASVKVSCKASGYTFNRYAITWVRQAPGQGLEWMGWISAYNGNSHYAQKLQGRVTMTTDTSTGTAYMELRRLRSDDTAVYYCARMAYDSWGQGTLVTVSS
VL: QSVLTQPASVSGSPGQSLTISCTGTSNDVGAYKYVSWYQQYPGKAPKLILYDVFKRPSGVSNRFSGSKSDNTASLTISGLQAEDEADYYCFSLTSSNTYVFGTGTKVTVLG
notes: Human scFv from a phage display library
B3: GPRC5D-202 scFv clone (scFv, V domains shown)
VH: EVQLVESGGGLVKPGGSLRLSCAASGFTFSDYYMSWIRQAPGKGLEWVSYISSSGSTIYYADSVKGRFTISRDNAKNSLYLQMNSLRAEDTAVYYCARGYGKAYDQWGQGTLVTVSS
VL: QSVLTQPPSASGTPGQRVTISCSGSRSNVGGNYVFWYQQVPGATPKLLIYRSNQRPSGVPDRFAGSKSGSSASLAISGLRSEDEADYYCATWDDSLSGFVFGTGTKVTVLG
notes: as for B2
B4: GPRC5D-203 scFv clone (scFv, V domains shown)
VH: QVQLVESGGGLVHPGGSLRLSCAASGFTFRSHSMNWVRQAPGKGLEWVSSISSDSTYTYYADSVKGRFTISRDNAKNSLYLQMNSLRAEDTAVYYCARSGGQWKYYDYWGQGTLVTVSS
VL: SSELTQDPAVSVALGQTVRITCQGDSLRSYYASWYQQKPGQAPVLVIYGKNNRPSGIPDRFSGSSSGNTASLTITGAQAEDEADYYCNSRDSSGNPPVVFGGGTKLTVLG
notes: as for B2
B5: GPRC5D-205 scFv clone (scFv, V domains shown)
VH: EVQLVESGGGLIQPGGSLRLSCAASGFTFSNYAMNWVRQAPGKGLEWVSTINGRGSSTIYADSVKGRFTISRDNSKNTLYLQMNSLRAEDTATYYCARYISRGLGDSWGQGTLVTV
VL: QSVVTQPPSMSAAPGQQVTISCSGGNSNIERNYVSWYLQLPGTAPKLVIFDNDRRPSGIPDRFSGSKSGTSATLGITGLQTGDEADYYCGTWDSSLRGWVFGGGTKLTVLG
notes: as for B2
B6: GPRC5D-203 VL/VH, long spacer CAR but lacking the signaling domains (other)
chain: SSELTQDPAVSVALGQTVRITCQGDSLRSYYASWYQQKPGQAPVLVIYGKNNRPSGIPDRFSGSSSGNTASLTITGAQAEDEADYYCNSRDSSGNPPVVFGGGTKLTVLGSRGGGGSGGGGSGGGGSLEMAQVQLVESGGGLVHPGGSLRLSCAASGFTFRSHSMNWVRQAPGKGLEWVSSISSDSTYTYYADSVKGRFTISRDNAKNSLYLQMNSLRAEDTAVYYCARSGGQWKYYDYWGQGTLVTVSSESKYGPPCPPCPAPPVAGPSVFLFPPKPKDTLMISRTPEVTCVVVDVSQEDPEVQFNWYVDGVEVHNAKTKPREEQFQSTYRVVSVLTVLHQDWLNGKEYKCKVSNKGLPSSIEKTISKAKGQPREPQVYTLPPSQEEMTKNQVSLTCLVKGFYPSDIAVEWESNGQPENNYKTTPPVLDSDGSFFLYSRLTVDKSRWQEGNVFSCSVMHEALHNHYTQKSLSLSLGKMFWVLVVVGGVLACYSLLVTVAFIIFWV
notes: Transiently expressed on HEK293 cells from a cell surface expression vector with cytoplasmic mCherry; also called non-signaling CAR
B7: GPRC5D-200 scFv clone (scFv, V domains shown)
VH: EVQLVESGGAFVQPGGSLRLSCAASGFTFSSYAMTWVRQAPGKGLEWVSTISGRGRSTFYADSVKGRFTISRDNSKNTLYLQMNSLRAEDTAVYYCARYYHAGAFDLWGQGTLVTVSS
VL: QSVVTQPASVSGSPGQSITISCTGTSSDVGGYNYVSWYQQHPGKAPKLMIYDVSKRPSGVSNRFSGSKSGNTASLTISGLQAEDEADYYCSSYTSSSTLVFGGGTKLTVLG
notes: Human scFv from a B cell-derived phage display library
B8: GPRC5D-204 scFv clone (scFv, V domains shown)
VH: EVQLVESGGGLVQPGGSLRLSCAASGFTFSNYAMSWVRQAPGKGLEWVSAISGSGNTYYADSVKGRFTISRDNSKNTLYLQMNSLRAEDTAVYYCARGSVRYTDIWGQGTLVTVSS
VL: NFMLTQPHSVSESPGKTVSISCTRTSGAIAGAYVQWFQQRPGSAPTTVIYDDNKRPSGVPDRFSGSIDKSSNSASLTISGLKTEDEADYYCQSYDYDSSNVLFGGGTKLTVLG
notes: as for B2
B9: GPRC5D-206 scFv clone (scFv, V domains shown)
VH: QVQLVQSGAEVKKPGASVKVSCKASGYTFTSYYMHWVRQAPGQGLEWMGIINPSGGSTRYAQKFQGRVTMTRDTSTSTVYMELSSLRSEDTAVYYCARGSSRWGGWTGDYWGQGTLVTVSS
VL: QSALTQPASVSGSPGQSITISCTGTSSDVGGYNFVSWYQQHPGKAPKVMIYDVSKRPSGISNRFSGSKSGNTASLTISGLQVEDEAEYYCSSYTSTRTVIFAGGTKVTVLG
notes: as for B2

Experiments:
[1] = molecular target: cynomolgus GPRC5D (cynomolgus); experiment: cell-based or functional assay
[2] = molecular target: T1, human G protein-coupled receptor class C group 5 member D (GPRC5D) (human, UniProt Q9NZD1 1-345); experiment: ELISA-based epitope mapping on overlapping 15-mer peptides of the GPRC5D extracellular domains linked to scaffolds (linear, conformational, discontinuous)
T1 construct: also called hGPRC5D

[3] = molecular target: T1, human G protein-coupled receptor class …; experiment: cell-cell interaction by automated flow cytometry: HEK293 cells with the non-signaling GPRC5D-203 long spacer CAR (mCherry) against HEK293 cells each expressing one human GPCR (GFP); Z-score
Procedure: In parallel, the cDNA of individual receptors from a library of human GPCRs, in a vector expressing cytoplasmic GFP, was transiently expressed in the HEK293 cells. […] Binding was determined using an automated flow cytometric assay that detects cell-cell interaction.

[4] = molecular target: T1, human G protein-coupled receptor class …; experiment: scFv phage clones from panning on hGPRC5D-aAPCs, binding to MM cell lines MM.1S and NCI-H929 (endogenous GPRC5D)

T1 sequence (Q9NZD1 whole entry, the tested form may be a part): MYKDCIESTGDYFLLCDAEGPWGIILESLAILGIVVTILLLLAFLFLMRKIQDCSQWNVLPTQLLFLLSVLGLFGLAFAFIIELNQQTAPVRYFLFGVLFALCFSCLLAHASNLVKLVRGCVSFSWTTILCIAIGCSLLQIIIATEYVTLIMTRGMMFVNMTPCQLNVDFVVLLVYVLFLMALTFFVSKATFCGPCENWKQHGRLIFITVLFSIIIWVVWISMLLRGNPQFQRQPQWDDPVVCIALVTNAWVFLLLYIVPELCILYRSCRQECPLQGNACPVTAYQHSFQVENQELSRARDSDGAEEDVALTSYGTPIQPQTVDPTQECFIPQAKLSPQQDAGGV

Binder	binding result [2]	binding result [4]	other results
B1			interferon gamma release by CAR-transduced NHP T cells [1]: 10000 pg/mL
B2	binds		
B3	binds		
B4	binds		
B5	binds		
B6			binding result [3]: binds
B7		binds	
B8		binds	
B9		binds	
